Measured values from the Immune Epitope Database (IEDB).
pIC50: −log10 of the molar value.

The sequences below were run against HLA-A*02:01 (assay: IEDB peptide-MHC binding, purified MHC/competitive/radioactivity; ≥ and ≤ were set here for values at or beyond the usual limits of such assays). Conditions: source organism: Homo sapiens.

Row | Sequence | pIC50
1 | TLGTVILLV | 7.22

Same assay, conditions: source organism: Human gammaherpesvirus 8

Row | Sequence | pIC50
2 | ALIGTMCGI | 7.48
3 | ALIGTMCGIL | 6.38
4 | ATLGTVILL | 6.75
5 | FIALNLSFI | 7.11
6 | FKNSSNLFT | 7.19
7 | FLYVVCSLA | 8.40
8 | FVAVHPVDV | 7.72
9 | GALLPGNLV | 6.30
10 | HLDFWHHEV | 7.70
11 | ITATFTAPL | 7.42
12 | KLLGTWMFSV | 8.52
13 | LLGTWMFSV | 8.52
14 | QLASILGCVD | 6.51
15 | RIFYNILEI | 7.21
16 | RLGAIPPLV | 6.48
17 | RLSNRICFWA | 6.42
18 | RLYQASAVM | 6.56
19 | SLVTGFINFI | 6.62
20 | SVDFYQFRV | 6.51
21 | SVSDFDLRI | 6.38
